Consider two molecules from article PMC12332008, “Ribosome biogenesis in plants requires the nuclear envelope and mitochondria localized OPENER complex” (Nature Communications, 2025).

Like-named read-outs stand apart in the source and are kept apart here.

Assay [1] concerns the target T1, OAP1 (recombinant, 6xHis-tag removed) (Arabidopsis thaliana, UniProt F4K9I8 1-303).
T1 construct: OPENER ASSOCIATED PROTEIN 1 (OAP1), Arabidopsis thaliana, AT5G07950; printed molecular weight 34 kDa; not shown: 6xHis, N-terminal, cleaved
T1 sequence (looked up): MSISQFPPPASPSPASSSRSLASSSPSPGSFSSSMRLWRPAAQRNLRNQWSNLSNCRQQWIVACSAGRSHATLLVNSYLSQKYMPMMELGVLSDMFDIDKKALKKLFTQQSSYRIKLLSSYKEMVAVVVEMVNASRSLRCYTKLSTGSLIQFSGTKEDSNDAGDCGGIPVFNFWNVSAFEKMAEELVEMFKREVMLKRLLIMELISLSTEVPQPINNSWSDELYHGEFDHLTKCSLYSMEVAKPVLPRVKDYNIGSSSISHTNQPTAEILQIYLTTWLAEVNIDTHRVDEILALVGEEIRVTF
In words: SEC; OPNR-OAP1-OAP2 complex after removal of the 6xHis-tag; Superdex200 16/600. On the technique in general: In gel filtration, larger molecules generally elute earlier.

Assay [2] concerns the target 6xHis-OAP1 (Arabidopsis thaliana). Kind of assay: co-purification of co-expressed proteins (Ni-NTA); 6xHis-OAP1, OAP2 and OPNR expressed together in E. coli BL21(DE3), purified on Ni-NTA resin by the His tag of OAP1; molar ratio from the gel.

The stoichiometry N is a count of units in the complex or per binding partner. As to OAP2 (recombinant) (natural protein), the stoichiometry N in assay [1] and in assay [2] was 1 in each case.

B1: OPNR (recombinant) (natural protein, Arabidopsis thaliana, UniProt Q6NPG7 1-195, looked up)
chain: MEAVIRKWQQKFRKGKEEMEKWEALQVRWVSLFRNASSIIQRLQEMQNHGSYGALRCLKGIEDAVVQQQMGQLESLLRSMKNVMEEFWGCVLTFEKLHRDGLQLREIESSKRRVEERIGVKPCITDCLEGLSILYDMHQSEYHLKSSILSVLSCLILKPSPGDLNALQYLVVDQPNIPKDEVQHIFDVIFAEEIK
notes: OPENER (OPNR), Arabidopsis thaliana, AT5G43822; printed molecular weight 23 kDa; also called OPENER; source: E. coli BL21(DE3), co-expressed with 6xHis-OAP1 and OAP2 from pACYCDuet-1, co-purified (Ni-NTA, Superdex200)
Take B1: the “stoichiometry N” value in assay [1] (both partners purified) and in assay [2] was 1 throughout.
